Patent US10801046B2, “Methods and materials for biosynthesizing multifunctional, multivariate molecules via carbon chain modification” (INVISTA NORTH AMERICA S.A.R.L., priority 2016, dated 2020)

Tested on: heptanedioyl-ACP methyl ester
Assay: not given
Type: cell-based, Escherichia coli
Conditions: top 150 hits screened in vivo

| Molecule | activity toward heptanedioyl-ACP methyl ester in vivo |
| --- | --- |
| SEQ ID NO: 76: Thermovirga lienii thioesterase (protein, listed as Thermovirga lienii, Thermovirga lienii (strain ATCC BAA-1197 / DSM 17291 / Cas60314), Thermovirga lienii thioesterase) MYEHNFRISYSQAGALGRLKLTGAMNLCQDIADDHAERVGVSVADLLKQSKTWVLHRFKMTIQTMPQRGDLVTIKTWYRPEKNLYSLRNFEMLDCNGKKLLSVQTSWVVVDMNRGRPLRLDRVMPEAYDKNKDENLEVSFQELLLPEKVDVKKTIQVAVTDLDMNFHVNNVHYLRWALDTIPVEILKEYKPKGVEIAFKRPAFYGDSVISEVGIDKNSCSILCRHHIYGEKDGQSMAVISTEWEKISREER | showed activity toward heptanedioyl-ACP methyl ester |
| SEQ ID NO: 75: Clostridium thermocellum thioesterase (protein, listed as Clostridium thermocellum, Clostridium thermocellum (strain ATCC 27405 / DSM 1237 / NBRC 103400 / NCIMB 10682 / NRRL B-4536 / VPI 7372), Clostridium thermocellum thioesterase) MQKKRFSKKYEVHYYEINSMQEATLLSLLNYMEDCAISHSTSAGYGVNELLAADAGWVLYRWLIKIDRLPKLGETITVQTWASSFERFYGNREFIVLDGRDNPIVKASSVWIYFNIKKRKPMRIPLEMGDAYGIDETRALEEPFTDFDFDFEPKVIEEFTVKRSDIDTNSHVNNKKYVDWIMETVPQQIYDNYKVTSLQIIYKKESSLGSGIKAGCVIDEQNTDNPRLLHKIWDKNTGLELVSAETIWQKIQS | showed activity toward heptanedioyl-ACP methyl ester |

Tested on: heptanedioyl-ACP methyl ester
Assay: Cell lysate in vitro thioesterase screen (DTNB, absorbance at 410 nm) on heptanedioyl-ACP methyl ester
Type: biochemical
Conditions: 0.33 mM acyl-ACP substrate, 30° C., 30 min

| Molecule | activity toward heptanedioyl-ACP methyl ester (hydrolysis) |
| --- | --- |
| SEQ ID NO: 89: Clostridium cellulolyticum thioesterase (protein, listed as Clostridium cellulolyticum, Clostridium cellulolyticum (strain ATCC 35319 / DSM 5812 / JCM 6584 / H10), Clostridium cellulolyticum thioesterase) MEPLSIYKKNYHVDYGDADFYKRLKLSYLFNYFQNIAGLHSENTNVGIRKLQNDYGAAWVMTRMLMDINRMPECNEEISIETWPVEPKKKMIDRNFIVRDMDGSILASAISTWVILDMEKREMVRIDSVIPPQYPEFLKSKAIDRKFDKLKPSGQLQPAYKKLVGFSDIDINGHVNNAKYIDYILDCFTVEKHGEYRVKSIQINYVNEAVAGDIISLYKDTVDMDGSDKAVYITGINEVDGKVNFESHIRVQ | notable for their activity toward heptanedioyl-ACP methyl ester |
| SEQ ID NO: 76: Thermovirga lienii thioesterase (protein, listed as Thermovirga lienii, Thermovirga lienii (strain ATCC BAA-1197 / DSM 17291 / Cas60314), Thermovirga lienii thioesterase) MYEHNFRISYSQAGALGRLKLTGAMNLCQDIADDHAERVGVSVADLLKQSKTWVLHRFKMTIQTMPQRGDLVTIKTWYRPEKNLYSLRNFEMLDCNGKKLLSVQTSWVVVDMNRGRPLRLDRVMPEAYDKNKDENLEVSFQELLLPEKVDVKKTIQVAVTDLDMNFHVNNVHYLRWALDTIPVEILKEYKPKGVEIAFKRPAFYGDSVISEVGIDKNSCSILCRHHIYGEKDGQSMAVISTEWEKISREER | notable for their activity toward heptanedioyl-ACP methyl ester |
| SEQ ID NO: 92: Treponema primitia thioesterase (protein, Treponema primitia (strain ATCC BAA-887 / DSM 12427 / ZAS-2), Treponema primitia thioesterase) MDVWKESYPVGFTAVDESEGLTLAAAFDYFQEAARRHAEVLGVGQEPMVQAGQGWVLSRISVLVERRPRQGELITVSTWPRGWEKLFALRDFDIRDESDKPIVRARSCWLIVNIEKRRPLRPQATMEKLPLNEGRDALPGGGVGLAPLENLLKAGDRVAAYSDIDYNGHVNNARYVQWVQDIADPTALVQAKTLRLDINYLSEVKIHEPIELWTEPLPAESDAVYTLGVEGRRNGGAVFRAELRIKD | notable for their activity toward heptanedioyl-ACP methyl ester |
| SEQ ID NO: 75: Clostridium thermocellum thioesterase (protein, listed as Clostridium thermocellum, Clostridium thermocellum (strain ATCC 27405 / DSM 1237 / NBRC 103400 / NCIMB 10682 / NRRL B-4536 / VPI 7372), Clostridium thermocellum thioesterase) MQKKRFSKKYEVHYYEINSMQEATLLSLLNYMEDCAISHSTSAGYGVNELLAADAGWVLYRWLIKIDRLPKLGETITVQTWASSFERFYGNREFIVLDGRDNPIVKASSVWIYFNIKKRKPMRIPLEMGDAYGIDETRALEEPFTDFDFDFEPKVIEEFTVKRSDIDTNSHVNNKKYVDWIMETVPQQIYDNYKVTSLQIIYKKESSLGSGIKAGCVIDEQNTDNPRLLHKIWDKNTGLELVSAETIWQKIQS | notable for their activity toward heptanedioyl-ACP methyl ester |
| SEQ ID NO: 93: Oceanimonas sp. thioesterase (protein, Oceanimonas sp. (strain GK1), Oceanimonas sp. thioesterase) MLRILVLLLCLVSPTVLADTLLILGDSLSAGYRMRSDQAWPHLLAEQWRREGRQVTVINASVSGDTTQGGLQRLPPLLQRHQPSLVLLELGGNDGLRGLPPGLIERNLERLIALAGDAGARVILTDIQLPPNYGRRYLQQFEQVFSRLASQHQLPLLPFFVAPLMGEQGMMMDDGIHPTVKAQPLIARQVGEFLTPYLTP | notable for their activity toward heptanedioyl-ACP methyl ester |
| SEQ ID NO: 60: Escherichia coli thioesterase (protein, Escherichia coli (strain K12), Escherichia coli thioesterase) MNTTLFRWPVRVYYEDTDAGGVVYHASYVAFYERARTEMLRHHHFSQQALMAERVAFVVRKMTVEYYAPARLDDMLEIQTEITSMRGTSLVFTQRIVNAENTLLNEAEVLVVCVDPLKMKPRALPKSIVAEFKQ | notable for their activity toward heptanedioyl-ACP methyl ester |
| SEQ ID NO: 94: Paenibacillus sp. IHBB 10380 thioesterase (protein, Paenibacillus sp. IHBB 10380, Paenibacillus sp; IHBB 10380 thioesterase) MGNIWTEEHLIYSNEIDYKANCRLSNLLSLMQRAADGDVEHMGGTRDQMVAHHLGWMLTTIDLACERMPIFNETLKITTWNKGTKGPLWLRDFRIFDENNQEIAKACTLWALVDIDKRKVLRPSAYPFNINSNHEDSVGPVPDKLNISDEVELYHSYSITVRYSGIDSNGHLNNSRYADLCMDTLTQSELDTLSILGFHITYYHEVKSAEQIQVLRSDHLEGYIYFRGQSLEDERYFEACLHVG | notable for their activity toward heptanedioyl-ACP methyl ester |
| SEQ ID NO: 61: Congregibacter litoralis KT71 thioesterase (protein, Congregibacter litoralis KT71, Congregibacter litoralis KT71 thioesterase) MGLLLGLALLLTGQLARAESTAGERPRILVVGDSISAAYGMSLEQGWAALLERRLQTRWPGAQVINASISGDTSAGGARRLPKLLAEHSPDLVVIELGGNDGLRGYPTSKLEANLSFMAEAASTAGAEVLILPMEIPPNYGPRYTRSFRESFERAATDTGATLGPFLLDGIATEEQLMQQDGIHPTVEAQPMITDIVQPVIEALLALREAS | notable for their activity toward heptanedioyl-ACP methyl ester |

Tested on: not listed separately
Assay: In vivo carboxylate reductase screening, substrate consumption by LC-MS, heptanedioate
Type: cell-based, Escherichia coli
Conditions: 541 enzymes screened in vivo
Experimental: To screen carboxylate reductases in vivo, […] T7- pUC expression vectors was co-transformed into T7 Express lysY/Iq with the phosphopantetheinyl transferase sfp from Bacillus subtilis on a T7-pCDF expression vector. Biological duplicates of the resulting strains were incubated in 0.5 mL of terrific broth containing either 1 g/L heptanedioate or 1 g/L monomethyl heptanedioate and supplemented with 0.4 mM IPTG in 96-well deep well plates. The plates were incubated for 30 h at 30° C. in a shaking incubator. The cells were then pelleted, and culture supernatants from the same strains in media containing either heptanedioate or monomethyl heptanedioate were combined. The combined supernatants were analyzed by LC-MS to determine the concentration of heptanedioate and monomethyl heptanedioate. Carboxylate reductase activity on heptanedioate or monomethyl heptanedioate was reflected by consumption of the respective substrate in the medium.

| Molecule | substrate preference, heptanedioic acid to 7-oxoheptanoate |
| --- | --- |
| SEQ ID NO: 202: Lichtheimia corymbifera carboxylate reductase (protein, Lichtheimia corymbifera JMRC:FSU:9682, Lichtheimia corymbifera carboxylate reductase) MVTLTMDKQTIEIPNDVPGESPILRRTPELMDSFVPGINNIYDLFYNGYKLSRDQPCLGERPILDRTTGERAKQFEWQTYEQVAARVDNFGSGLKHVLQQIGESRPKQIPIGIWSVNRPEWHIVDWACAAHSLYVVALYDTLGPDTVEYVVNHAEIQVVVCTKEHVTDLLKLRSKLPQLKAIISFDTLEKEQSQALHAWAEEKDLLLVEFANVEQHGKENPVPHNPAQRSDLACIMYTSGTTGKSKGVMLTQGNFVAAVSGAIYNVKSSPADVGISYLPLGHIYGRVADAFTVAGGASLGFFSGKVDNLLEDMQILKPTLFNTVPRLLNRIYTGIVQSTLQAPGMMKKSTMSLIWNCSLGITDVGPKGALFRKAIATKLENLEQGKGTQHPVYDRLLFDKVRQVLGGRVRFINTGAAPLGKEVMQLLRVTLLADIRESYGATESCASLTMQIEGDPKPGCIGIPAPCNEMKLIDVPEMNYLTTDKPYARGEICVRGYNVSLGYYKDEEKTKEAFDKDGFYHTGDIGMIDERGTFMVIDRKKNIFKLSQGEYIAPEKIENIYARDILVSQIFVYGDSVQSCLVAIVVPDPIELGKLAQEKLPKLTSLSYEELCNNPEVHIAVLERMMENGKRAEMRGFEFVKAIHLDSKPFTVENNLLTPSLKLKRPEARKFFQKEIEQLYQKLSNSSAGSAARL | preferred acting upon heptanedioic acid to form 7-oxoheptanoate |
| SEQ ID NO: 203: Labilithrix luteola carboxylate reductase (protein, listed as Labilithrix luteola) MDISRFLDLRIAPRAVFDALEERKTRARFMVPTAPGSNEWRPVTWGAFAQEIRELALFLSTVLSSGDRGAVYAPNRVEWASAALAIQAAGGVIVPIYPASTPDQLSYVASHSDAKVIFVDTAPLLTRLFATWNSTPGVEKIVVLDDGIDVARVYESAREKGIPVPSLDAVERKVLSIGKARGIGAARDQEDPQAFERTMAAISLDQAGMMLYTSGTSGNPKGVPLTHRNVAVNGLDWLKCNYPLLEEGDVDILWLPMSHIFGFGEMCLGNTLGWTSYLADPATCLGRLPEVTPNIFMSVPSHWEKLALMAMHEPTPQARLDKFKAATGGKLRFCLSGGAGLKREVKDFFYSCGVLIVEGYGLTETSPTLTLNRPDAFRFDTVGKTLPSVELRLADDGEILARGASVFGGYHKDPEATREAFTEDGWFKTGDVGRFTDDGFLQIIDRKKDILVTAGGKNVPPANIEIRFQDDPLFAHVVVYGDAKKYLVAGVWLNEEAMSSQLASVPKDQQESARRDLVQKRIDHVNASLASYETIKKFSIIGEPLTVEAGLLTPSLKMRRKKVYEHFHGIFEGMFEDTQGKGAASSTASQGSGA | preferred acting upon heptanedioic acid to form 7-oxoheptanoate |
| SEQ ID NO: 204: Geotrichum candidum carboxylate reductase (protein, listed as Geotrichum candidum) MSATLNGTQFPPEVAARLRTYPIATDPSVNANTPLITDPVTVKPYKIGKPQAVPVPGSKVDGFSEVYRNAHCPDRLVTTVHPKITTVVEAFDACVSEYKNEKALGERVFDGKTKTWSKIYQYETYGTIAKRRLDIGKGISKVVQDVTGFDSRQTPYCLGLYGPNCSNWILTDLAAQTQSIPTVCLYDTLGPDSTRYIMTLTEMPAIVCSVAHIPFVLNIKDELPNLKVIIAMNPINNPDIVDKPGQSKKDVLTAWAKKSGVELFEFTEVEKIGRESGRGLHLPGPDTVLTINFTSGTTGNPKGVVISQANVLAGTIVARSQSTFNHRGSSGFLSFLPLAHIYERLTIHSVLTSGIPIGFFHGDVAELLDDIATYHPTIVAGVPRIWNRIAGAIRASTIEAPGIAGALSRKAYTTKLARLHETGDYHHPIWDRLWSNKIRTKTGFDQAKTFVTGSAPMARENIELIKVALGVEFVQGYGLTETMGGISVCSPGDNTAGSVGPVAITTEVKLRDLPTMNYSSSDKPFPRGEIMIRGPQVFMGYYKNEEATKGSIDEDGWFSSGDVGMIDDLGRLYVIDRVKNFFKLAQGEYVGPERIEALYQSSSGLVAQIFVEGNSLETYLVGIVGVNPEAYVQFLSHNFKMHIKPTDLEAIKKTFSRKDIRDTFLLELNVHAKDAQLKGYEKIKNVTLAIEPFSVENGTLTPTLKVKRPDAARLFKADVDAMYKEGPVEVKSKL | preferred acting upon heptanedioic acid to form 7-oxoheptanoate |
